The target in experiment [1] is HLA-A*26:01. Briefly: IEDB peptide-MHC binding, purified MHC/direct/fluorescence; filed as Kd, often an IC50 or EC50 that approximates it; ≥ and ≤ were set here for values at or beyond the usual limits of such assays.
Experiment [2] addresses HLA-A*01:01. The experiment is described as above.
For another experiment, the target named is HLA-B*27:05. The description is as above.
Another experiment deals with HLA-A*11:01. The description is as above.
The target in experiment [3] is HLA-B*15:01. The experiment is described as above.
Experiment [4] deals with HLA-B*40:01. The description is as above.
Another experiment has as its target HLA-A*69:01. The experiment is described as above.
The target of the next experiment is HLA-A*31:01. Described as above.
Experiment [5] has as its target HLA-A*03:01. The description is as above.
For experiment [6], the target named is HLA-B*58:01. Described as above.
In experiment [7] the target is HLA-B*35:01. The experiment is described as above.
For a further experiment, the target named is HLA-B*44:02. The description is as above.
A further experiment addresses HLA-A*02:01. Described as above.
The target in experiment [8] is HLA-B*08:01. Described as above.
A further experiment addresses HLA-C*05:01. Described as above.
The target of the next experiment is HLA-B*51:01. Briefly: IEDB peptide-MHC binding, purified MHC/competitive/radioactivity; filed as Kd, often an IC50 or EC50 that approximates it; ≥ and ≤ were set here for values at or beyond the usual limits of such assays. To be noted: source organism: SARS coronavirus Tor2.
Experiment [9] has as its target HLA-B*07:02. The experiment is described as above. To be noted: source organism: SARS coronavirus Tor2.
Experiment [10] has as its target HLA-B*35:01. Described as above. To be noted: source organism: SARS coronavirus Tor2.
A further experiment addresses HLA-B*53:01. The experiment is described as above. Particulars: source organism: SARS coronavirus Tor2.
In another experiment the target is HLA-B*54:01. The description is as above. Particulars: source organism: SARS coronavirus Tor2.
The target in experiment [11] is HLA-B*07:02. Briefly: IEDB peptide-MHC binding, purified MHC/direct/fluorescence; filed as Kd, often an IC50 or EC50 that approximates it; ≥ and ≤ were set here for values at or beyond the usual limits of such assays. Particulars: source organism: Coxiella burnetii.
Another experiment deals with HLA-A*24:03. The description is as above. To be noted: source organism: Coxiella burnetii.
The target of experiment [12] is HLA-B*15:01. Briefly: IEDB peptide-MHC binding, purified MHC/competitive/fluorescence; filed as Kd, often an IC50 or EC50 that approximates it; ≥ and ≤ were set here for values at or beyond the usual limits of such assays.
Experiment [13] has as its target HLA-A*03:01. Described as above. Particulars: source organism: Escherichia coli str. K-12 substr. MG1655.
Experiment [14] has as its target HLA-B*58:01. Described as above.
Experiment [15] concerns the target HLA-A*26:01. The experiment is described as above. To be noted: source organism: Escherichia coli str. K-12 substr. MG1655.
Experiment [16] addresses HLA-A*01:01. The description is as above.
The target of experiment [17] is HLA-B*35:01. Described as above.
Another experiment concerns the target HLA-B*57:01. Briefly: IEDB peptide-MHC binding, purified MHC/direct/fluorescence; filed as Kd, often an IC50 or EC50 that approximates it; ≥ and ≤ were set here for values at or beyond the usual limits of such assays. To be noted: source organism: Mycobacterium tuberculosis.
The target of a further experiment is HLA-B*46:01. The experiment is described as above. Particulars: source organism: Mycobacterium tuberculosis.
Another experiment concerns the target HLA-B*18:01. The experiment is described as above. To be noted: source organism: Mycobacterium tuberculosis.
A further experiment has as its target HLA-B*08:03. The description is as above. To be noted: source organism: Mycobacterium tuberculosis str. Haarlem.
In a further experiment the target is HLA-A*29:02. The description is as above. To be noted: source organism: Mycobacterium tuberculosis.
Experiment [18] concerns the target HLA-B*40:01. Briefly: IEDB peptide-MHC binding, purified MHC/competitive/fluorescence; filed as Kd, often an IC50 or EC50 that approximates it; ≥ and ≤ were set here for values at or beyond the usual limits of such assays.
For a further experiment, the target named is HLA-C*12:03. Briefly: IEDB peptide-MHC binding, purified MHC/direct/fluorescence; filed as Kd, often an IC50 or EC50 that approximates it; ≥ and ≤ were set here for values at or beyond the usual limits of such assays. To be noted: source organism: Toxoplasma gondii RH.
For the next experiment, the target named is HLA-A*68:02. Briefly: IEDB peptide-MHC binding, purified MHC/competitive/fluorescence; filed as Kd, often an IC50 or EC50 that approximates it; ≥ and ≤ were set here for values at or beyond the usual limits of such assays. Particulars: source organism: Toxoplasma gondii RH.
Experiment [19] has as its target HLA-B*08:01. The description is as above. Particulars: source organism: Escherichia coli.
A further experiment deals with HLA-C*08:02. Briefly: IEDB peptide-MHC binding, purified MHC/direct/fluorescence; filed as Kd, often an IC50 or EC50 that approximates it; ≥ and ≤ were set here for values at or beyond the usual limits of such assays.
In a further experiment the target is HLA-C*03:03. Described as above. Particulars: source organism: Mycobacterium tuberculosis C.
The mark [20] stands for this setting: source organism: Escherichia coli O157:H7.
The mark [21] stands for this setting: source organism: Coxiella burnetii.
Setting [22] is: source organism: Escherichia coli str. K-12 substr. MG1655.
[23] abbreviates: source organism: Mycobacterium tuberculosis.
Setting [24] is: source organism: Shigella flexneri 5 str. 8401.
Where [25] appears, read: source organism: Salmonella enterica subsp. enterica serovar Typhi.

Regarding IRNPPMVVF, the Kd in the experiment with HLA-A*26:01 [1] (setting [20]) is no less than 20 µM; in the experiment with HLA-A*01:01 [2] (setting [20]), no less than 20 µM; with HLA-B*27:05 (setting [20]), 3.25 µM; with HLA-A*11:01 (setting [20]), no less than 20 µM; with HLA-B*15:01 [3] (setting [20]) it was no less than 20 µM; with HLA-B*40:01 [4] (setting [20]), no less than 20 µM. For the same sequence, the Kd with HLA-A*69:01 (setting [20]) was no less than 20 µM; with HLA-A*31:01 (setting [20]), no less than 20 µM; with HLA-A*03:01 [5] (setting [20]) it was no less than 20 µM; with HLA-B*58:01 [6] (setting [20]), no less than 20 µM; with HLA-B*35:01 [7] (setting [20]), no less than 10 µM; with HLA-B*44:02 (setting [20]) it was no less than 20 µM. The Kd in the experiment with HLA-A*02:01 (setting [20]) and in the experiment with HLA-B*08:01 [8] (setting [20]) was no less than 20 µM in each case.
With APYMVGDVI, the Kd in the experiment with HLA-C*05:01 (source organism: SARS-CoV1) was no less than 20 µM; with HLA-B*51:01 it was 0.08 µM; with HLA-B*07:02 [9], 0.139 µM; with HLA-B*35:01 [10], 11 µM; with HLA-B*53:01, 3.58 µM; with HLA-B*54:01, no less than 27.3 µM.
Take WAPEGDIRL: the Kd with HLA-A*26:01 [1] (setting [21]) was no less than 20 µM; in the experiment with HLA-A*01:01 [2] (setting [21]), no less than 20 µM; with HLA-B*27:05 (setting [21]) it was no less than 20 µM; with HLA-A*11:01 (setting [21]), no less than 20 µM; with HLA-B*07:02 [11], 4.29 µM; in the experiment with HLA-B*15:01 [3] (setting [21]), no less than 20 µM. The Kd with HLA-B*40:01 [4] (setting [21]), with HLA-A*69:01 (setting [21]), with HLA-A*24:03, in the experiment with HLA-A*31:01 (setting [21]), with HLA-A*03:01 [5] (setting [21]) and with HLA-B*58:01 [6] (setting [21]) was no less than 20 µM throughout. In addition, the Kd in the experiment with HLA-B*35:01 [7] (setting [21]) was 0.899 µM; in the experiment with HLA-B*44:02 (setting [21]) it was no less than 20 µM; in the experiment with HLA-A*02:01 (setting [21]) it was 0.33 µM; with HLA-B*08:01 [8] (setting [21]), no less than 20 µM.
For the sequence KVGITGFCY, the Kd with HLA-B*15:01 [12] (setting [22]) came out at 0.247 µM; with HLA-A*03:01 [13] it was 2.2 µM; with HLA-B*58:01 [14] (setting [22]), 0.418 µM.
Regarding RINEGWPAY, the Kd in the experiment with HLA-A*26:01 [15] is no less than 20 µM; with HLA-A*01:01 [16] (setting [22]) it was 0.481 µM; with HLA-B*15:01 [12] (setting [22]) it was 0.084 µM; with HLA-A*03:01 [13] it was 0.0422 µM; in the experiment with HLA-B*58:01 [14] (setting [22]), no less than 20 µM; with HLA-B*35:01 [17] (setting [22]) it was 0.0592 µM.
Consider WMRGRGRAL, for which the Kd in the experiment with HLA-A*01:01 [2] (setting [23]), in the experiment with HLA-B*57:01, with HLA-B*27:05 (setting [23]), with HLA-A*11:01 (setting [23]), with HLA-B*46:01 and with HLA-B*40:01 [4] (setting [23]) was no less than 20 µM throughout. Also, the dissociation constant Kd with HLA-B*18:01, with HLA-A*69:01 (setting [23]), with HLA-A*31:01 (setting [23]), in the experiment with HLA-A*03:01 [5] (setting [23]), in the experiment with HLA-B*58:01 [6] (setting [23]) and in the experiment with HLA-B*44:02 (setting [23]) was no less than 20 µM throughout. Further, the Kd with HLA-A*02:01 (setting [23]), in the experiment with HLA-B*08:03 and with HLA-A*29:02 was no less than 20 µM each time.
The sequence IEVTNATEL came in with a Kd in the experiment with HLA-B*40:01 [18] (source organism: Influenza A virus) of 0.0056 µM.
For GELESAIGL, the Kd in the experiment with HLA-B*15:01 [12] (setting [24]) was no less than 20 µM; with HLA-B*40:01 [18] (setting [24]), 0.0028 µM.
For the sequence ISASLAALF, in the experiment with HLA-B*58:01 [14] (source organism: Bacillus anthracis str. A0488), the Kd came out at 0.0017 µM.
As for FLDPHPYYV, the Kd with HLA-C*05:01 (source organism: Toxoplasma gondii RH) was no more than 0.001 µM; with HLA-C*12:03, 0.047 µM; with HLA-A*68:02, 0.0563 µM.
As for HENARLRAL, the results for the Kd in the experiment with HLA-B*40:01 [18] (source organism: Escherichia coli) and in the experiment with HLA-B*08:01 [19] were 0.0048 µM and 0.175 µM, respectively.
For FAADKDSLY, the dissociation constant (Kd) is no less than 20 µM with HLA-C*08:02 (source organism: Salmonella enterica subsp. enterica serovar Typhi str. CT18), 0.313 µM with HLA-A*01:01 [16] (setting [25]) and 0.0002 µM with HLA-B*35:01 [17] (setting [25]).
As to YLPDPTVGV, the dissociation constant (Kd) with HLA-C*03:03 and in the experiment with HLA-C*08:02 (source organism: Mycobacterium tuberculosis C) was no less than 20 µM throughout.
The sequence MENMLDLLM had a Kd in the experiment with HLA-B*40:01 [18] (source organism: Yersinia frederiksenii ATCC 33641) of 0.0102 µM.

The values above are taken from the Immune Epitope Database (IEDB).
